Test [1] concerns the target T1, human epidermal growth factor receptor 2 (HER2) extracellular domain (human, UniProt P04626 23-629). The experiment in a line: SPR, table row 28.
For test [2], the target named is T1, human epidermal growth factor receptor …. Kind of test: SPR, table row 40.
The target in test [3] is T2, human vascular endothelial growth factor A (VEGF-A) (human, UniProt P15692 220-313).
T2 sequence: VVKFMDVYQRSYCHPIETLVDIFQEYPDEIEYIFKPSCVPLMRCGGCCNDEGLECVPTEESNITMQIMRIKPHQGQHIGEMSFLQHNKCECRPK
Kind of test: SPR, Fab format.

The target in test [4] is T1, human epidermal growth factor receptor …. The experiment in a line: SPR, table row 25.
Test [5] has the same target. Kind of test: SPR, table row 39.
Test [6] shares this target. Kind of test: SPR, table row 42.
Test [7] has the same target. The experiment in a line: SPR, table row 38.

B1: Trast_Her2_76 (Fab, V domains shown)
VH: EVQLVESGGGLVQPGGSLRLSCAASGFNIKDTYIHWVRQAPGKGLEWVARIYPTNGYTRYADSVKGRFTISADTSKNTAYLQMNSLRAEDTAVYYCAMDFKFTRLDLWGQGTLVTVSS
VL: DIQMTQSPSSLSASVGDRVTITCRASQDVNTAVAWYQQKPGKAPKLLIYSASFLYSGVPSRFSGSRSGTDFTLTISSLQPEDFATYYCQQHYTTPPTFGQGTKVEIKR
notes: also called HCDR3 AMDFKFTRLDL
In test [1], B1 came in with a Kd of 36.4 nM, a koff of 0.00127 s⁻¹ and a kon of 35000 M⁻¹ s⁻¹. For the same molecule, in test [2], the affinity, expressed as Kd, was 159 nM; the koff turned out to be 0.00525 s⁻¹; the kon was 33100 M⁻¹ s⁻¹.

B2: De novo ranibizumab HCDR3 variant ASGNFSYPDDYGMDW (SEQ ID NO: 50) (Fab, V domains shown)
VH: EVQLVESGGGLVQPGGSLRLSCAASGYDFTHYGMNWVRQAPGKGLEWVGWINTYTGEPTYAADFKRRFTFSLDTSKSTAYLQMNSLRAEDTAVYYCASGNFSYPDDYGMDWWGQGTLVTVSS
VL: DIQLTQSPSSLSASVGDRVTITCSASQDISNYLNWYQQKPGKAPKVLIYFTSSLHSGVPSRFSGSGSGTDFTLTISSLQPEDFATYYCQQYSTVPWTFGQGTKVEIKR
Molecule B2 displayed a Kd in test [3] of 48.2 nM.

B3: Trast_Her2_229 (Fab, V domains shown)
VH: EVQLVESGGGLVQPGGSLRLSCAASGFNIKDTYIHWVRQAPGKGLEWVARIYPTNGYTRYADSVKGRFTISADTSKNTAYLQMNSLRAEDTAVYYCARFDRYGYYLGTWGQGTLVTVSS
VL: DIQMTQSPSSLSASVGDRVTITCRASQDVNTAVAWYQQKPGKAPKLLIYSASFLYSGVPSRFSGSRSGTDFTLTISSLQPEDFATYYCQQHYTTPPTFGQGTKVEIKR
notes: also called HCDR3 ARFDRYGYYLGT
In test [4], B3 came in with a Kd of 30.4 nM, a koff of 0.000635 s⁻¹ and a kon of 20900 M⁻¹ s⁻¹. In test [5], the affinity, expressed as Kd, was 114 nM; the koff worked out at 0.00201 s⁻¹; the kon came out at 17700 M⁻¹ s⁻¹.

B4: Trast_Her2_230 (Fab, V domains shown)
VH: B3 VH
VL: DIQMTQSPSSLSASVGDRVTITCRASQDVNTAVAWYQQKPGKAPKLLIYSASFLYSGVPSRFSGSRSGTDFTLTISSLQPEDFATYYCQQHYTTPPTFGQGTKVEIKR
notes: as for B3
In test [6], B4 had an equilibrium dissociation constant (Kd) of 198 nM, a koff of 0.0046 s⁻¹ and a kon of 23300 M⁻¹ s⁻¹. In test [7], this molecule displayed a Kd of 104 nM, a koff of 0.0023 s⁻¹ and a kon of 22100 M⁻¹ s⁻¹.

The record behind these values is patent US20250218531A1 (ABSCI, published 2025).
